Measurements taken from patent publication US20080311034A1 (published 2008).

How the values were obtained:
[1] = target: T1, recombinant polyhistidine tagged mouse FcγRIII (R&D Systems) (mouse, UniProt P08508 31-215); assay: ELISA, His-tagged mouse receptor captured on copper-coated plate
T1 construct: Bought
T1 sequence (looked up): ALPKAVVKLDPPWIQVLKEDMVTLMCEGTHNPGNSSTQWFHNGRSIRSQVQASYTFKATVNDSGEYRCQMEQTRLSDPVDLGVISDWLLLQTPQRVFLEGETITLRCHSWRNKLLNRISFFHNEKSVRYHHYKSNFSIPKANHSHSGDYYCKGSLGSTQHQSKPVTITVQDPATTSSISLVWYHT
Experimental: (§1) Commercially-available recombinant polyhistidine tagged mouse FcγRI, FcγRII, FcγRIII, and FcγRIV (R&D Systems) were diluted to 1 μg/ml in PBS and 100 μl/well was captured onto copper-coated plates (Pierce) overnight at 4° C. Plates were washed three times with wash buffer (0.15M NaCl, 0.02% Tween 20). Non-specific binding was blocked using 200 μl/well SuperBlock (Pierce) for 15 minutes at room temperature. Plates were washed three times as above. […] Plates were washed three times as above to remove unbound mAb. CNTO 860 variants that bound to plated receptors were detected using 100 μl/well HRP-labeled goat F(ab′)₂ anti-human IgG F(ab′)₂ (Jackson ImmunoResearch) diluted 1:5,000 in PBS incubated at room temperature for 1 hour. Plates were washed five times using wash buffer as above, and developed using 100 μl/well TMB Stable Stop substrate (Fitzgerald Industries) stopped with 0.5M HCl. Absorbance was detected at 450 nm.
(§2) All binding assays were in an ELISA format, with recombinant soluble receptor captured on coated EIA plates.

[2] = target: T2, recombinant polyhistidine tagged mouse FcγRII (R&D Systems) (mouse, UniProt P08101 40-217, limits assumed); assay: as above
T2 construct: Bought; also called FcRII
T2 sequence (looked up): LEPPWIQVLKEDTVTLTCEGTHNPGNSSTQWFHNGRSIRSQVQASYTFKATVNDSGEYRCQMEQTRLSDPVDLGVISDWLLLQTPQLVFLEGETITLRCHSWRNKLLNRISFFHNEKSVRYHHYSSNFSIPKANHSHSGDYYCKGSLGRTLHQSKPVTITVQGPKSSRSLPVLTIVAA
Experimental: as §1, §2

[3] = target: T3, recombinant polyhistidine tagged mouse FcγRIV (R&D Systems) (mouse, UniProt A0A0B4J1G0 21-203); assay: as above
T3 construct: Bought
T3 sequence: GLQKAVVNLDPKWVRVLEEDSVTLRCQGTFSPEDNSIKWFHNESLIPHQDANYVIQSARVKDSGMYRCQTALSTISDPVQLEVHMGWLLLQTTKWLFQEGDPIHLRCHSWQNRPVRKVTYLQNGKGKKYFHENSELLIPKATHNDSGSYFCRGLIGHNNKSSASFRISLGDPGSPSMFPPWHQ
Experimental: as §1, §2

[4] = target: T4, recombinant human His-tagged FcγRIIIa (extracellular domain made at Centocor) (human, UniProt P08637 17-208); assay: ELISA
T4 construct: extracellular domain; also called CD16a; recombinant, soluble, human FcγRIIIa
T4 sequence (P08637 17-208): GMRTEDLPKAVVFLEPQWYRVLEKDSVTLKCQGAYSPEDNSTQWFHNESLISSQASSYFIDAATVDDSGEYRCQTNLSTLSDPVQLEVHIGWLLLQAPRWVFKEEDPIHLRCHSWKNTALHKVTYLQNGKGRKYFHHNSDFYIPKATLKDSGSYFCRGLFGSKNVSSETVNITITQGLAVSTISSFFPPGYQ
Experimental: FcγRI (CD64) ELISA —50 μl of a 1 μg/ml solution of recombinant human His-tagged FcγRI (extracellular domain, R&D Systems #1257-FC-050) in ELISA buffer (PBS, pH 7.4, 4 mg/ml BSA, 0.01% Tween-20) was added to each well of HisGrab 96 well plates (Pierce #15142) (Powers G., Notebook 9006, pp. 166-168, 180-181). The plate was incubated with shaking for 3 hours. The plates were washed 3× with 300 μl of wash buffer (PBS, 0.01% Tween-20) on a plate washer. Serial dilutions of the CNTO860 antibody Fc-variant samples were made in ELISA buffer and 50 μl per well of each titration were added in duplicate to the FcγRI-coated plates. The plates were incubated with shaking for 1 hour. The plates were washed 3× with 300 μl of wash buffer on a plate washer. 50 μl of a 1:10,000 dilution of HRP-labeled goat F(ab′)₂ anti-human IgG F(ab′)₂ (Jackson Immunoresearch # 109-036-097) in ELISA buffer was added to each well. The plates were incubated with shaking for 30 minutes. The plates were washed 3× with 300 μl of wash buffer on the plate washer. 50 μl per well TMB substrate (RDI #RDI-TMBSU-1L) was added to each well and developed for 5 minutes. The reaction was stopped by adding 100 μl 0.2 N sulfuric acid. The plates were read at OD450 on an Envision plate reader.
FcγRIIIa (CD16a) ELISA—A human FcγRIIIa binding assay was done in ELISA format similar to the assay for FcγRI above. 50 μl of a 2 μg/ml solution of recombinant human His-tagged FcγRIIIa (extracellular domain made at Centocor) in ELISA buffer (PBS, 4 mg/ml BSA, 0.01% Tween-20) was added to each well of HisGrab 96 well plates (Pierce #15142) (Powers G., Notebook 10378, 19-23). The plate was incubated for 3 hours at room temp. The plates were blocked with 200 μl of Starting Block (Pierce #15142) for 30 min, and then washed 3× with 300 μl of wash buffer (PBS, 0.01% Tween-20) on a plate washer. Serial dilutions of the CNTO 860 test samples were made in Starting Block buffer and 50 μl per well of each titration were added in duplicate to the FcγRIIIa-coated plates. The plates were incubated for 1 hour. The plates were washed 3× with 300 μl of wash buffer on a plate washer. 50 μl of a 1:10,000 dilution of HRP-labeled goat F(ab′)2 anti-human IgG F(ab′)2 (Jackson Immunoresearch # 109-036-097) in Starting Block buffer was added to each well. The plates were incubated for 30 minutes.

[5] = target: T5, recombinant polyhistidine tagged mouse FcγRI (R&D Systems) (mouse, UniProt P26151 25-297); assay: ELISA, His-tagged mouse receptor captured on copper-coated plate
T5 construct: Bought; also called murine FcγRI
T5 sequence (looked up): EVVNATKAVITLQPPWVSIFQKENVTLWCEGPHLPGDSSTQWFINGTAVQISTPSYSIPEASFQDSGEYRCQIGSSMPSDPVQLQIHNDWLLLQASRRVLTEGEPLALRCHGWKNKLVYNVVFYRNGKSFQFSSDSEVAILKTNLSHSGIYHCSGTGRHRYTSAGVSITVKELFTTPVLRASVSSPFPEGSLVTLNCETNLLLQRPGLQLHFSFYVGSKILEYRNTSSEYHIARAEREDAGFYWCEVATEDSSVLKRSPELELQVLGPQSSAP
Experimental: as §1, §2

[6] = target: FcγRIIIa on NK cells of human PBMC (human, UniProt P08637 17-254); assay: cell-based or functional assay
Sequence of FcγRIIIa on NK cells of human PBMC (P08637 17-254): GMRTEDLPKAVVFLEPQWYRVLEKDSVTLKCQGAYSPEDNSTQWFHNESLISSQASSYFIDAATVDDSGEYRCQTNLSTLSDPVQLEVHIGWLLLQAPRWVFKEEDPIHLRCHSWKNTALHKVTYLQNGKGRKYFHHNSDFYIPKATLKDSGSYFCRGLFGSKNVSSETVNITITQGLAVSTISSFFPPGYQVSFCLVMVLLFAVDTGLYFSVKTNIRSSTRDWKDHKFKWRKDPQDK

| Binder | ECOD1 (concentration required for an O.D. value of 1.0) [1] [ng/mL] | ECOD1 (concentration required for an O.D. value of 1.0) [2] [ng/mL] | ECOD1 (concentration required for an O.D. value of 1.0) [3] [ng/mL] | fold better binding than WT from CHO [4] [fold] | ECOD1 (concentration required for an O.D. value of 1.0) [5] [ng/mL] | EC25 (ng/ml), ADCC of HCT116 cells by human PBMC [6] [ng/mL] |
| --- | --- | --- | --- | --- | --- | --- |
| CHO-CNTO 860 WT (antibody, human IgG1, kappa, N-linked glycan at heavy chain Asn297 (CHO-type, highly fucosylated); not carried by the letters, Anti-human tissue factor human IgG1/kappa; transiently expressed in CHO cells (plasmids p4145/p4146; CHO Abs typically 95% fucosylated), purified by protein A; also called CNTO 860 WT from CHO cells; WT (CHO cell-derived); copies: 2 + 2) heavy: not shown light: DIQMTQSPSSLSASVGDRVTITCKASQDIRKYLNWYQQKPGKAPKLLIYYATSLADGVPSRFSGSGSGTDYTFTISSLQPEDIATYYCLQHGESPYTFGQGTKLEITRTVAAPSVFIFPPSDEQLKSGTASVVCLLNNFYPREAKVQWKVDNALQSGNSQESVTEQDSKDSTYSLSSTLTLSKADYEKHKVYACEVTHQGLSSPVTKSFNRGEC | 4000 | 4000 | 60 |  |  |  |
| YB2/0-CNTO 860 WT (antibody, human IgG1, kappa, Heavy chain N297 carries the YB2/0-type N-linked glycan (40-60% fucosylated); not carried by the letters., Anti-human tissue factor human IgG1/kappa; stably expressed in rat YB2/0 cells (p2401/p2402; YB2/0 Abs typically 40-60% fucosylated), purified by protein A; also called WT (YB2/0 cell-derived); WT from YB2/0 cells; copies: 2 + 2) heavy: not shown light: DIQMTQSPSSLSASVGDRVTITCKASQDIRKYLNWYQQKPGKAPKLLIYYATSLADGVPSRFSGSGSGTDYTFTISSLQPEDIATYYCLQHGESPYTFGQGTKLEITRTVAAPSVFIFPPSDEQLKSGTASVVCLLNNFYPREAKVQWKVDNALQSGNSQESVTEQDSKDSTYSLSSTLTLSKADYEKHKVYACEVTHQGLSSPVTKSFNRGEC | 4000 | 3000 | 30 | ~3 | 12000 |  |
| YB2/0-CNTO 860 A330I (antibody, IgG1, N-linked glycan at heavy chain Asn297 (YB2/0-type, low fucose); not carried by the letters, IgG1/kappa Fc variant; stably expressed in YB2/0 cells (p4177/p2402); EU numbering; also called A330I (YB2/0 cell-derived); A330I mutant expressed in YB2/0 cells; copies: 2 + 2) heavy: not shown light: DIQMTQSPSSLSASVGDRVTITCKASQDIRKYLNWYQQKPGKAPKLLIYYATSLADGVPSRFSGSGSGTDYTFTISSLQPEDIATYYCLQHGESPYTFGQGTKLEITRTVAAPSVFIFPPSDEQLKSGTASVVCLLNNFYPREAKVQWKVDNALQSGNSQESVTEQDSKDSTYSLSSTLTLSKADYEKHKVYACEVTHQGLSSPVTKSFNRGEC | 8000 | 7000 | 15 |  | 25000 | 0.7 |
| YB2/0-CNTO 860 A330Y (antibody, human IgG1, kappa, N-linked glycan at heavy chain Asn297 (YB2/0-type, low fucose); not carried by the letters, IgG1/kappa Fc variant; stably expressed in YB2/0 cells (p4176/p2402); EU numbering; also called A330Y (YB2/0 cell-derived); copies: 2 + 2) heavy: not shown light: DIQMTQSPSSLSASVGDRVTITCKASQDIRKYLNWYQQKPGKAPKLLIYYATSLADGVPSRFSGSGSGTDYTFTISSLQPEDIATYYCLQHGESPYTFGQGTKLEITRTVAAPSVFIFPPSDEQLKSGTASVVCLLNNFYPREAKVQWKVDNALQSGNSQESVTEQDSKDSTYSLSSTLTLSKADYEKHKVYACEVTHQGLSSPVTKSFNRGEC | 6500 | 6000 | 30 |  | 4000 | 0.4 |
